The values below come from patent publication US20020183249A1, “Method of identifying inhibitors of CDC25” (priority 1999, published 2002).

Assay [1] concerns the target Cdc25A (human). In words: cell-based or functional assay.
For assay [2], the target named is T1, Cdc25A (Homo sapiens, UniProt P30304).
T1 sequence (P30304 1-524): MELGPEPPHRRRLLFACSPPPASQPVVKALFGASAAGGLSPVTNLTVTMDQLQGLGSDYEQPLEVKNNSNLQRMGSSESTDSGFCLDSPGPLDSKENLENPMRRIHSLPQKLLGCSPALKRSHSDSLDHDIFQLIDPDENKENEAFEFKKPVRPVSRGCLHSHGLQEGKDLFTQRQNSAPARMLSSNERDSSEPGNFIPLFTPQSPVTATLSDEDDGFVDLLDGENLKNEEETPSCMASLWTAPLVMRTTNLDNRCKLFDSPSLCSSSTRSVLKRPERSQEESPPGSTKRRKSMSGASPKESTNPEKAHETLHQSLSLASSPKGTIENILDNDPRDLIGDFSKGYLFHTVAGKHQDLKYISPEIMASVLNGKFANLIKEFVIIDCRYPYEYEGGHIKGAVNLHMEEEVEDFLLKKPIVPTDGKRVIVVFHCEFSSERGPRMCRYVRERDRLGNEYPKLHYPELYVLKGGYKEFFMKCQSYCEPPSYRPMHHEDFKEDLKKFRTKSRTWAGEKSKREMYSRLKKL
In words: Inhibition of Cdc25A enzymatic activity (IC50). It counts as biochemical. The source says: A compound which is identified by one of the foregoing methods as a potential inhibitor of Cdc25 can then be obtained, for example, by synthesis or from a compound library, and assessed for the ability to inhibit Cdc25 in vitro. Such an in vitro assay can be performed as is known in the art, for example, by contacting Cdc25 in solution with the test compound in the presence of a substrate for Cdc25. The rate of substrate transformation can be determined in the presence of the test compound and compared with the rate in the absence of the test compound. Suitable assays for Cdc25 biological activity are described in U.S. Pat. Nos. 5,861,249; 5,695,950; 5,443,962; and 5,294,538, the teachings of each of which are hereby incorporated by reference herein in their entirety.

pIC50: −log10 of the molar value. Where two headings read alike, the source gives them in different places. Non-standard residues stand in square brackets, D forms with d. Residues, ends and D or L forms follow the SMILES beside them. *: point of attachment. Phe(4-CH2SO3H) = N[C@@H](Cc1ccc(CS(=O)(=O)O)cc1)C(=O)O; Bta = N[C@@H](Cc1csc2ccccc12)C(=O)O; Aad = N[C@@H](CCCC(=O)O)C(=O)O; X1 = CCOc1ccc2ccccc2c1C(=O)*; X2 = COc1ccc2ccccc2c1C(=O)*; αMeP = C[C@@]1(C(=O)O)CCCN1; Nle = CCCC[C@H](N)C(=O)O; Nva = CCC[C@H](N)C(=O)O; NHtBu = CC(C)(C)N*; OtBu = CC(C)(C)O*

As for “2-CH3O-1-naphthyl-CO-Smp-Glu-Glu-Bta-Aad-NHtBu (peptide)”, the IC50 (commonly the concentration that inhibits the measured activity by half) in assay [1] stood at 5 µM.

In the case of “2-EtO-naphthyl-1-CO-Smp-Glu(tBu)-Pro-Bta-Aad-NHtBu (peptide)”, the IC50 in assay [1] stood at 1.1 µM.

For the molecule “2-EtO-naphthyl-1-CO-Smp-Glu-Pro-Bta-Aad-NHtBu (peptide)”, in assay [1], the IC50 was found to be 2.2 µM and the increase in potency compared to cdc1671 is 2 fold.

As for “2-EtO-naphthyl-1-CO-Smp-Nle-Pro-Bta-Aad-NHtBu (peptide)”, in assay [1], the IC50 amounted to 2.5 µM.

“2-EtO-naphthyl-1-CO-Smp-Nva-MePro-Bta-Aad-NHtBu (peptide)”: in assay [1], the IC50 was found to be 1.5 µM.

`COc1ccc2ccccc2c1C(=O)N[C@@H](Cc1ccc(CS(=O)(=O)O)cc1)C(=O)N[C@@H](CCC(=O)O)C(=O)N[C@@H](CCC(=O)O)C(=O)N[C@@H](Cc1csc2ccccc12)C(=O)N[C@@H](CCCC(=O)O)C(=O)NC(C)(C)C` [cdc1671, 2-CH3O-1-naphthyl-CO—Smp—Glu—Glu—Bta—Aad—NHtBu] (X2-[Phe(4-CH2SO3H)]EE[Bta][Aad]-NHtBu): the pIC50 (usually the IC50 on a negative log10 scale, so that one unit is a factor of ten) in assay [2] (inhibits Cdc25A, read-out: IC50) is 5.30.

In assay [2], `CCOc1ccc2ccccc2c1C(=O)N[C@@H](Cc1ccc(CS(=O)(=O)O)cc1)C(=O)N[C@@H](CCC(=O)OC(C)(C)C)C(=O)N1CCC[C@H]1C(=O)N[C@@H](Cc1csc2ccccc12)C(=O)N[C@@H](CCCC(=O)O)C(=O)NC(C)(C)C` [cdc1719] (X1-[Phe(4-CH2SO3H)]E(OtBu)P[Bta][Aad]-NHtBu) showed a pIC50 of 5.96.

In turn, `CCCC[C@H](NC(=O)[C@H](Cc1ccc(CS(=O)(=O)O)cc1)NC(=O)c1c(OCC)ccc2ccccc12)C(=O)N1CCC[C@H]1C(=O)N[C@@H](Cc1csc2ccccc12)C(=O)N[C@@H](CCCC(=O)O)C(=O)NC(C)(C)C` [cdc1748] (X1-[Phe(4-CH2SO3H)][Nle]P[Bta][Aad]-NHtBu) gave a negative-log IC50 (pIC50) in assay [2] of 5.60.

`CCC[C@H](NC(=O)[C@H](Cc1ccc(CS(=O)(=O)O)cc1)NC(=O)c1c(OCC)ccc2ccccc12)C(=O)N1CCC[C@@]1(C)C(=O)N[C@@H](Cc1csc2ccccc12)C(=O)N[C@@H](CCCC(=O)O)C(=O)NC(C)(C)C` [cdc1749] (X1-[Phe(4-CH2SO3H)][Nva][αMeP][Bta][Aad]-NHtBu) showed a pIC50 in assay [2] of 5.82.

`CCOc1ccc2ccccc2c1C(=O)N[C@@H](Cc1ccc(CS(=O)(=O)O)cc1)C(=O)N[C@@H](CCC(=O)O)C(=O)N1CCC[C@H]1C(=O)N[C@@H](Cc1csc2ccccc12)C(=O)N[C@@H](CCCC(=O)O)C(=O)NC(C)(C)C` [cdc1763] (X1-[Phe(4-CH2SO3H)]EP[Bta][Aad]-NHtBu) showed a pIC50 in assay [2] of 5.66. For the same molecule, in assay [2] (Cdc25A IC50 relative to cdc1671), the “increase in potency compared to cdc1671” value is given as “two-fold”.
